Experimental data as given in article PMC4335783, “A novel psychrophilic alkaline phosphatase from the metagenome of tidal flat sediments” (BMC Biotechnology, 2015).

Tested on: T1, O=[N+]([O-])c1ccc(OP(=O)(O)O)cc1
T1 construct: printed as 527 residues, 56 kDa; C-terminal factor Xa site and His6 tag; E. coli BL21(DE3) periplasm; monomer
Assay: purified protein
Type: biochemical, uncultured bacterium
Conditions: 37 °C, pH 9.0, 50 mM DEA, 0.5 mM CaCl2

“mAP (metagenome-derived alkaline phosphatase) (uncultured bacterium)” was tested, and the Km was 180 µM, the kcat was 952 s⁻¹ and the kcat/Km was 5.3e+06 M⁻¹ s⁻¹.
